Values of other authors as cited in publication PMC7465696.
pKd: −log10 of the molar value.

Molecular target: HP1β CSD (Homo sapiens) (UniProt P83916)
Experiment: sedimentation analysis

HP1β CSD (from UniProt P83916)
pKd: > 6.82
